Consider three molecules from publication PMC10397247.

The target of assay [1] is T1, 4H2935-AA.
T1 chain: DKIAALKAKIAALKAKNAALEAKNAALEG
As to the kind of experiment: two-hybrid library CCmax.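 Further: natural log of median RNA to DNA barcode read ratio; higher means stronger binding.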

For assay [2], the target named is T2, 4H327-AA.
T2 chain: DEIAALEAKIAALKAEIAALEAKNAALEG
Briefly: two-hybrid library CCmax.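 Further: natural log of median RNA to DNA barcode read ratio; higher means stronger binding.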 Conditions: mean of both orientations.

In assay [3] the target is T3, 4H3605-AA.
T3 chain: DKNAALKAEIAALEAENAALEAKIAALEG
As to the kind of experiment: two-hybrid library CCmax.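 Further: natural log of median RNA to DNA barcode read ratio; higher means stronger binding.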 To be noted: mean of both orientations.

Assay [4] concerns the target T4, 4H3625-AA.
T4 chain: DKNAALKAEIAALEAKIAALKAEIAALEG
As to the kind of experiment: two-hybrid library CCmax.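 Further: natural log of median RNA to DNA barcode read ratio; higher means stronger binding.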 Conditions: mean of both orientations.

Assay [5] addresses T5, 4H3664-AA.
T5 chain: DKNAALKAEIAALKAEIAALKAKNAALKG
Briefly: two-hybrid library CCmax. To be noted: mean of both orientations.

For assay [6], the target named is T6, 4H369-AA.
T6 chain: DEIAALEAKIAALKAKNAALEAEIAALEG
Briefly: two-hybrid library CCmax. Conditions: mean of both orientations.

The target in assay [7] is T7, 4H3922-AA.
T7 chain: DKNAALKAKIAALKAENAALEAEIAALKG
Briefly: two-hybrid library CCmax. Conditions: mean of both orientations.

Assay [8] has as its target T8, 4H4033-AA.
T8 chain: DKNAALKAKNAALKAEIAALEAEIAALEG
As to the kind of experiment: two-hybrid library CCmax. Conditions: mean of both orientations.

Assay [9] has as its target T9, 4H481-AA.
T9 chain: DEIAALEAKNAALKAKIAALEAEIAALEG
Briefly: two-hybrid library CCmax. Conditions: mean of both orientations.

Assay [10] addresses T10, 4H55-AA.
T10 chain: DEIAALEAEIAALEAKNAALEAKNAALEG
Briefly: two-hybrid library CCmax. Conditions: mean of both orientations.

The target in assay [11] is T11, 4H662-AA.
T11 chain: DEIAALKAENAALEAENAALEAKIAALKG
As to the kind of experiment: two-hybrid library CCmax. Conditions: mean of both orientations.

Assay [12] has as its target T12, 4H3858-bA.
T12 chain: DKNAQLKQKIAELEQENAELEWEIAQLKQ
As to the kind of experiment: two-hybrid library CCNG1.

The target in assay [13] is T13, 4H3974-bA.
T13 chain: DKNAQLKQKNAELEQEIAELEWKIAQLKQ
Briefly: two-hybrid library CCNG1.

For assay [14], the target named is T14, 4H570-bA.
T14 chain: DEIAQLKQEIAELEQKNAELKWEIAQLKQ
As to the kind of experiment: two-hybrid library CCNG1.

Assay [15] has as its target T15, 4H850-bA.
T15 chain: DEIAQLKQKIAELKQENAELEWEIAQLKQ
As to the kind of experiment: two-hybrid library CCNG1.

Assay [16] addresses T16, O6.
T16 chain: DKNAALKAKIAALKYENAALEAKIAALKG
Briefly: two-hybrid library CCNG1.

Assay [17] concerns the target T17, O7.
T17 chain: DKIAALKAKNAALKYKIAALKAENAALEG
Briefly: two-hybrid library CCNG1.

The target of assay [18] is T18, O8.
T18 chain: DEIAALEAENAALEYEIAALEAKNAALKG
Briefly: two-hybrid library CCNG1.

Assay [19] has as its target T19, O9.
T19 chain: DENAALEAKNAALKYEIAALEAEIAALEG
As to the kind of experiment: two-hybrid library CCNG1.

As to DKIAALKAKIAALKAKNAALEAKNAALEG [4H2935-AA], the interaction score in [1] was -1.28; in [2], -0.77; in assay [3], -0.818; in assay [4], -1.65; in assay [5], -1.44; in assay [6], -1.13. Also, the interaction score in [7] is -1.89; in assay [8] it was -1.05; in [9], -1.6; in [10] it was 1.48; in assay [11] it was -1.34.
For the molecule DKNAQLKQKIAELEQENAELEWEIAQLKQ [4H3858-bA], the interaction score in [12] is 0.569; in assay [13] it was -0.665; in assay [14] it was 1.16; in assay [15], -0.964.
DKNAALKAKIAALKYENAALEAKIAALKG [O6]: the interaction score in [16] is -2.52; in assay [17], -2.14; in assay [18] it was -1.47; in assay [19], -0.62.
